# Patent US20100291189A1 (RIKEN, published 2010)
# Molecular target: the molecule itself
# Test: SDS-PAGE/CBB staining of sucrose gradient liposome fractions; self-association (homo-tetramer)
protein,measurement,value
"E. coli-derived water channel (AQPZ), full-length, with N-terminal native His tag and TEV protease recognition site, cell-free synthesized (other, No cleavage of the tag by TEV is reported before the gels; Purified in DDM for Blue-Native PAGE, and in a phosphatidylcholine liposome fraction for SDS-PAGE; also called cell-free synthesized AQPZ) MKDHLIHNVHKEEHAHAHNKDYDIPTTENLYFQGSSGSSGMFRKLAAECFGTFWLVFGGCGSAVLAAGFPELGIGFAGVALAFGLTVLTMAFAVGHISGGHFNPAVTIGLWAGGRFPAKEVVGYVIAQVVGGIVAAALLYLIASGKTGFDAAASGFASNGYGEHSPGGYSMLSALVVELVLSAGFLLVIHGATDKFAPAGFAPIAIGLALTLIHLISIPVTNTSVNPARSTAVAIFQGGWALEQLWFFWVVPIVGGIIGGLIYRTLLEKRD",binding result,binds
